# Reference: patent US20260216362A1, “ANTI-BDCA2 ANTIBODY-DRUG CONJUGATE AND USE THEREOF” (DUALITY BIOLOGICS (SHANGHAI) CO., LTD., priority 2022, published 2026)
# Biological target: T1, human BDCA2 expressed on CHOK1 cells (human, UniProt Q8WTT0 1-213)
# T1 construct: whole, on cells; also called CHOK1-hBDCA2; CHOK1-humanBDCA2
# T1 sequence (looked up): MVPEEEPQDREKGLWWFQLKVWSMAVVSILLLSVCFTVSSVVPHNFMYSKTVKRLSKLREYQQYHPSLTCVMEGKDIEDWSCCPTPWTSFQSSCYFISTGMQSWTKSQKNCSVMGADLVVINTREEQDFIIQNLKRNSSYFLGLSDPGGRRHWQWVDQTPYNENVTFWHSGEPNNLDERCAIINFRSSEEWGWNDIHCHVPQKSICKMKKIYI
# Test: FACS on CHOK1-hBDCA2 cells
# Method: (§1) The cells were collected and resuspended to 2×10\hat{ }6 cells/mL in an FACS buffer (PBS+2% FBS). The resuspended cells were added to a 3799 cell plate at 100 μL/well and centrifuged at 300 g, and the supernatant was discarded. […] The cells were resuspended and incubated at 4° C. for 1 h. The incubated cells were centrifuged at 300 g for 5 min and washed twice with the FACS buffer. 100 μL of Goat anti-Human IgG (H+L) Cross-Adsorbed Secondary Antibody, Alexa Fluor 488 (Sigma, A11013; 1:1000) secondary antibody was added. The cells were incubated at 4° C. for 1 h, washed twice with the FACS buffer, and resuspended in PBS. The fluorescence signals of the antibodies for binding to the cell surface were analyzed using an FACS (BD FACS Canto™ II) instrument, curves were fitted using GraphPad Prism6, and EC50 values of the antibodies or antibody-drug conjugates for binding to the BDCA2 antigen were calculated.
row,Molecule,EC50 [nM]
1,"Hu033-03 (antibody, human IgG1, kappa, V domains shown, Humanized IgG1; also called Hu033-03(BM3)) VH: EVQLVESGGGLVKPGGSLRLSCAASGFTFSSYGMSWVRQAPGKGLEWVSTISSGDSYTYYPDSVKGRFTISRDNAKNSLYLQMNSLRAEDTAVYYCARQIYYDYAYYFDFWGQGTTVTVSS VL: DIVLTQSPASLAVSPGQRATITCRASESVSFRTSHLMHWYQQKPGQPPKLLIYGASNLESGVPARFSGSGSETDFTLTINPVEAEDTANYFCQQSIEDPPTFGGGTKVEIKR",1.23
2,"Hu033-03-ADC (antibody, human IgG1, kappa, V domains shown, Compound 9 (glucocorticoid linker-payload) coupled to cysteine sulfhydryls after TCEP reduction, positions not given; average 4.01 per antibody by HIC, also called Hu033-03 antibody-drug conjugate; BDCA2-ADC) VH: EVQLVESGGGLVKPGGSLRLSCAASGFTFSSYGMSWVRQAPGKGLEWVSTISSGDSYTYYPDSVKGRFTISRDNAKNSLYLQMNSLRAEDTAVYYCARQIYYDYAYYFDFWGQGTTVTVSS VL: DIVLTQSPASLAVSPGQRATITCRASESVSFRTSHLMHWYQQKPGQPPKLLIYGASNLESGVPARFSGSGSETDFTLTINPVEAEDTANYFCQQSIEDPPTFGGGTKVEIKR",1.6
3,"BIIB059 (antibody, human IgG1, kappa, V domains shown, also called positive control antibody BIIB059) VH: DVQLVESGGGLVKPGGSLRLSCAASGFTFSTYTMSWVRQAPGKGLEWVATISPGDSFGYYYPDSVQGRFTISRDNAKNSLYLQMNSLRAEDTAVYYCTRDIYYNYGAWFAYWGQGTLVTVSS VL: DIQLTQSPSSLSASVGDRVTITCKASQSVDYDGDSYMNWYQQKPGKAPKLLIYAASTLESGVPSRFSGSGSGTDFTLTISSLQPEDFATYYCQQANEDPRTFGQGTKVEIKR",3.29

# Biological target: T2, cynomolgus monkey BDCA2 expressed on 293F cells (cynomolgus monkey, UniProt A0A2K5UWP4 1-212)
# T2 construct: whole, on cells
# T2 sequence: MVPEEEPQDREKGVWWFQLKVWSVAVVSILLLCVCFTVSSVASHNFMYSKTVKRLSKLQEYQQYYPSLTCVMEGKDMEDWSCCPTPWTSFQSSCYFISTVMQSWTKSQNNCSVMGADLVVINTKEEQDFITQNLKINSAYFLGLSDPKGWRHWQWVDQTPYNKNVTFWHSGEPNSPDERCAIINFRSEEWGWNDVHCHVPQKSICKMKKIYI
# Test: FACS on 293F-cynoBDCA2 cells
# Method: as §1
row,Molecule,EC50 [nM]
1,"Hu033-03 (antibody, human IgG1, kappa, V domains shown, Humanized IgG1; also called Hu033-03(BM3)) VH: EVQLVESGGGLVKPGGSLRLSCAASGFTFSSYGMSWVRQAPGKGLEWVSTISSGDSYTYYPDSVKGRFTISRDNAKNSLYLQMNSLRAEDTAVYYCARQIYYDYAYYFDFWGQGTTVTVSS VL: DIVLTQSPASLAVSPGQRATITCRASESVSFRTSHLMHWYQQKPGQPPKLLIYGASNLESGVPARFSGSGSETDFTLTINPVEAEDTANYFCQQSIEDPPTFGGGTKVEIKR",1.91
2,"Hu033-03-ADC (antibody, human IgG1, kappa, V domains shown, Compound 9 (glucocorticoid linker-payload) coupled to cysteine sulfhydryls after TCEP reduction, positions not given; average 4.01 per antibody by HIC, also called Hu033-03 antibody-drug conjugate; BDCA2-ADC) VH: EVQLVESGGGLVKPGGSLRLSCAASGFTFSSYGMSWVRQAPGKGLEWVSTISSGDSYTYYPDSVKGRFTISRDNAKNSLYLQMNSLRAEDTAVYYCARQIYYDYAYYFDFWGQGTTVTVSS VL: DIVLTQSPASLAVSPGQRATITCRASESVSFRTSHLMHWYQQKPGQPPKLLIYGASNLESGVPARFSGSGSETDFTLTINPVEAEDTANYFCQQSIEDPPTFGGGTKVEIKR",2.36

# Biological target: T1, human BDCA2 expressed on CHOK1 cells
# Test: FACS on CHOK1-hBDCA2 cells, MFI vs concentration; EC50 from the drawn table (fit of a flat control curve)
row,Molecule,EC50 [nM]
1,hIgG1 (antibody),160000

# Biological target: T3, Human BDCA2 Fc recombinant protein (human, UniProt Q8WTT0 45-213)
# T3 construct: also called HumanBDCA2 Fc protein; not shown: The N-terminal human IgG1 Fc fragment and the linker
# T3 sequence: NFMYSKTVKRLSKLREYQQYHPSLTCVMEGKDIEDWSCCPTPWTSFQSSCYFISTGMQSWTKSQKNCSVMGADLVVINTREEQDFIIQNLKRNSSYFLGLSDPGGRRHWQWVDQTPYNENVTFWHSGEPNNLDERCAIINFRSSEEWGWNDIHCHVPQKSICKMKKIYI
# Test: ELISA, coated humanBDCA2 Fc
row,Molecule,EC50 [nM]
1,mAb001 (antibody) chain 1: QIQLVQSGPELKKPGETVKISCKASGYTFTDFSMHWVKQAPGKGLKWMGWINTETGEPTYADDFKGRFAFSLETSASTAFLQINNLKNDDTTTYFCSRGGDGHPYWYFAVWGAGTTVTVSS chain 2: DIVLTQSPASLAVSLGQRATISCRASQSVSTSSYSYMHWYQQKPGQPPKLLIKYASILESGVPARFSGSGSGTDFTLNIHPVEEEDTATYYCQHSWEIPFTFGSGTKLEIK,< 0.3
2,mAb002 (antibody) chain 1: QIQLVQSGPELKKPGETVKISCRASGYSFTDYSMHWVKQAPGKGLKWVGWINTETGEPTYADDFKGRFALSLETSATSAYLQINNLKNEDTATYFCARGGDGFPYWYFNVWGAGTTVTVSS chain 2: DIVLTQSPTSLAVSLGQRTNISCRASQSVSTSSNSYIHWYQQKPGQPPKLLIKYASNLDSGVPARFSGSGSGTDFTLNIHPVEEEDTSTYYCQHSWEIPFTFGSGTKLEIK,< 0.3
3,mAb005 (antibody) chain 1: QVQLKQSGPGLVQPSQSLSITCTVSGFSLTNYGVHWVRQSPGKGLEWLGVIWSGESTDYDAAFISRLSISKDNSKSQVFFKMNSLQADDSAIYYCARRRSHYYGYVMDYWGQGTSVTVSS chain 2: DIVLTQSPASLAVSLGQRATISCKASQSIDYDGIGYLNWYQHKPGQPPKLLIYAASNLESGIPARFSGSGSGTDFTLNIHPVEEEDAATYYCQQSNEDPPTFGSGTKLEIK,< 0.3
4,mAb016 (antibody) chain 1: QVQLKQSGPGLVQPSQSLSITCTVSGFSLTSYGVHWVRQSPGKGLEWLGVIWSGESTDYDAAFISRLSISKDNSKSQVFFRMNSLQADDSAIYYCARRRSHYYGYVMDYWGQGTSVTVSS chain 2: DIVLTQSPASLAVSLGQRATISCKASQSVDYDGVGYLNWYQHKPGQPPKLLIYAASNLESGIPARFSGSGSGTDFTLNIHPVEEEDAATYYCQQSNEDPPTFGSGTKLEIK,< 0.3
5,mAb020 (antibody) chain 1: DVQLQESGPGLVKPSQSLSLTCSVTGYSIASGYYWNWIRQFPGNKLEWMGYISFDGTYNYNPSLKDRFSITRDTSKNQFFLKLNSVTTEDTATYYCARGVDYPNAIDWWGQGTSVTVSS chain 2: DIVLTQSPASLAVSLGQRATISCRASESVSMHVTHLIHWYQQKPGQPPKLLIYVASNLESGVPARFSGSGSETDFTLNIHPVEEEDAATYFCQQSFEDPWTFGGGTKLEIK,< 0.3
6,mAb022 (antibody) chain 1: DVQLQESGPGLVKPSQSLSLTCSVTGYSITSGYYWNWIRQFPGNKLEWMGYISFDGTYNYNPSLKDRFSITRDTSKNQFFLKLNSVTTEDTATYYCARGVDYPKAMDWWGQGTSVTVSS chain 2: DIVLTQSPASLAVSLGQRATISCRASESVSMHVTHLIHWYQQKPGQPPKLLIYVASNLESGVPARFSGSGSETDFTLNIHPVEEEDAATYFCQQSFEDPWTFGGGTKLEIK,< 0.3
7,mAb024 (antibody) chain 1: EVQLVESGGDLVKPGGSLKLSCAASGFTFSSFGMSWVRQTPDKRLDWVATISSGDSYTYYPDSVKGRFSISRDNAKNTLYLQMSSLKSEDTAVYYCARQIYYDYAYYFDYWGQGTTLTVSS chain 2: DIVLTQSPASLAVSLGQRATISCRASESVSFRSSHLMHWYRQKPGQPPKLLIYAASNLESGVPARFSGSGSETDFTLNIHPVEEEDAAAYFCQQSIEDPPTFGGGTKLEIK,< 0.3
8,mAb021 (antibody) chain 1: DVQLQESGPGLVKPSQSLSLTCSVTGYSITSAYYWNWIRQFPGNKLECMGYITYDGNNYYSPSLKNRISITRDTSKNQFFLNLNSVTTEDTATYFCARGGDYDDGGFAFWGQGTLVTVSA chain 2: DIQMTQSPASLSASVGETVTITCRASGNIHNYLAWYHQKQGKSPQLLVYNAKSLVDGVPSRFSGSGSGTQYSLRINSLQPEDFGSYYCQHFWIVPYTFGGGTKLEII,< 0.3
9,mAb027 (antibody) chain 1: DVQLQESGPGLVKPSQSLSLTCSVTGYSITSAYYWNWVRQFPGNQLECMGYITYDGSNNYNPSLKNRISITRDTSKNQFFLKLNSVTTEDTATYYCVRGGDYDDGGFAYWGQGTLVTVSA chain 2: DIQMTQSPASLSASVGETVTITCRASGNIHNYLAWYQQKQGKSPQLLVYNAKTLVDGVPSRFSGSGSGTEYSLKINSLQPEDFGIYFCQHFWIIPYTFGGGTKLEIR,< 0.3
10,mAb030 (antibody) chain 1: DVQLQESGPGLVKPSQSLSLTCSVTGYSITSAYYWNWIRQFPGNKLECMGYISYDGSNYYNPSLKNRISITRDTSKNQFFLSLNSVTTEDTATYFCVRGGDYDDGGFAYWGQGTLVTVSA chain 2: DIQMTQSPASLSASVGETVTITCRASGNIHNYLAWYQQKQGKSPQLLVYNAKTLADGVPSRFSGSGSETQYSLKINSLQPEDFGNYFCQHFWIIPYTFGGGTKLEIK,< 0.3
11,mAb019 (antibody) chain 1: EVKLVESGGDLVQPGGSLKLSCAASGFTFSDYYMYWVRQTPEKRLEWVAYISYSGDSTYYPDTVKGRFTISRDNAKNTLFLQMSRLKSEDTAMYYCARHSPSFPYYFDYWGQGTALTVSS chain 2: EIVLTQSPAITAASLGQKVTITCSASSSVSYMHWYQQKSGTSPKPWIYEISKLASGVPARFSGSGSGTSYSLTISSMEAEDAAIYYCQLWNYPLITFGGGTNLEIK,< 0.3

# Biological target: cynomolgus monkey BDCA2 expressed on 293F cells (cynomolgus monkey)
# Test: FACS on 293F-cynoBDCA2 cells, MFI vs concentration; EC50 from the drawn table (fit of a flat control curve)
row,Molecule,EC50 [nM]
1,hIgG1 (antibody),584
